Source: patent US20160311870A1 (SWEDISH ORPHAN BIOVITRUM AB PUBL, published 2016)

Molecular target: T1, human complement component 5 (C5) (human, UniProt P01031 19-673; P01031 678-1676)
T1 construct: Bought human C5 (Quidel Cat #403 / A403); also called human C5; hC5
Experiment: BLI (ForteBio), compound captured on HSA sensor, human C5 in solution
Method: Human serum albumin was immobilized to Amine Reactive 2nd generation (AR2G) Dip and Read Biosensors (Pall Life sciences (ForteBio) Cat #18-5092) by amine coupling. […] Regeneration conditions for the sensors were 10 mM Glycine, pH 2 (three pulses with 30 seconds and running buffer for 60 seconds). Each spectrogram was reference subtracted against an analogous construct containing an albumin binding domain (SEQ ID NO: 250) but without the C5 binding capacity. The data were analyzed according to Langmuir 1:1 model using ForteBio Analysis 7.1 (Pall Life sciences (ForteBio) kinetics software).

Rel. KD (KD relative to PSI0242): 2.1
B1: PSI0383 (designed binder)
chain: AEAKYAKEVLEAWDEIDRLPNLTIEQWLAFINKLDRQPEQSSELLSEAKKLSESQAPKVEGSLAEAKEAANAELDSYGVSDFYKRLIDKAKTVEGVEALKDAILAALP
notes: N52S, D53E, D60E and loop changes D36R, D37Q, S39E against PSI0242
